Laboratory results from PMC5995969, “Structural basis for the regulation of human 5,10-methylenetetrahydrofolate reductase by phosphorylation and S-adenosylmethionine inhibition” (Nature Communications, 2018).

B1: HsMTHFR38–644 (domain or fragment)
chain: not shown
notes: Not phosphorylated; Native and SeMet-derivatized protein were crystallized; also called truncated HsMTHFR; crystallized construct
B2: CIP-treated HsMTHFR1–656 (dephosphorylated) (enzyme)
chain: not shown
notes: human 5,10-methylenetetrahydrofolate reductase (MTHFR), residues 1–656, numbered according to NP_005948.3; Same construct as m1 after removal of 9 or 10 phosphate groups by CIP; Some residues of the cleaved C-terminal tag may be left; also called HsMTHFR_(1–656) (CIP); dephosphorylated HsMTHFR_(1–656); not shown: FLAG, C-terminal, cleaved; His10, C-terminal, cleaved
B3: full-length recombinant human MTHFR (HsMTHFR1–656), as purified (phosphorylated) (enzyme)
chain: not shown
modifications: phosphorylated with partial occupancy, up to ten sites occupied simultaneously: Ser9, Ser10, Ser18, Ser20, Ser21, Ser23, Ser25, Ser26, Ser29, Ser30, Thr34, Tyr90, Thr94, Ser103, Ser394, Thr451
notes: human 5,10-methylenetetrahydrofolate reductase (MTHFR), 656 amino acids, residues 1–656, numbered according to NP_005948.3; also called 5,10-methylenetetrahydrofolate reductase; phosphorylated HsMTHFR_(1–656); source: Sf9 (baculovirus), purified (Ni-NTA, Superdex 200, tag cleaved by TEV protease, re-passaged over Ni-NTA); not shown: FLAG, C-terminal, cleaved; His10, C-terminal, cleaved

Biological target: the molecule itself
Test: native MS; protein desalted into 50 mM ammonium acetate pH 6.5, infused directly, positive ion ESI-QTOF; as purified or after CIP treatment

Protein | stoichiometry N
B1 | 2
B2 | 2
B3 | 2
